# Publication PMC10482006
# Molecular target: Kcnj13 (Kir7.1) from D. rerio fused to mCherry (D. rerio)
# Test: mass photometry; OneMP mass photometer (Refeyn), buffer E, sample diluted 1:10 immediately before analysis, mass calibrated with NativeMark; protein solubilised in DDM with CHS
substance,measurement,value
Kcnj13 (Kir7.1) from D. rerio fused to mCherry (natural protein),stoichiometry N,4
